FRET efficiency (control siRNA, 0 min EGF), FRET efficiency (β1 integrin siRNA, 0 min EGF) and increase in FRET efficiency 3 min after EGF against 0 min (control cells) data for 1 substance are collected here from paper PMC3667720.

The experiment has as its target β-actin (human (endogenous in MDA-MB-231)) (UniProt P60709). Briefly: FRET or BRET. A general note: BRET reads energy transfer from a luciferase to a nearby fluorophore.

Consider “cofilin (from UniProt P23528 1-166) (natural protein)”, for which the FRET efficiency (control siRNA, 0 min EGF) is 4.34%; the FRET efficiency (β1 integrin siRNA, 0 min EGF) is 3.85%; the increase in FRET efficiency 3 min after EGF against 0 min (control cells) worked out at 40%.
